Laboratory results published in the supplement of paper PMC10065799, “High-throughput profiling of sequence recognition by tyrosine kinases and SH2 domains using bacterial peptide display” (eLife, 2023).

Tests used:
[1] = target: Grb2 SH2 (UniProt P62993); test: SH2 binding enrichment of the phosphorylated peptide, bacterial display (enrichment ratio); higher = better substrate or ligand; peptides without Tyr show the background
[2] = target: c-Src SH2; test: as above
[3] = target: SHP2-C SH2; test: as above
[4] = target: EPHB1 (UniProt P54762); test: phosphorylation enrichment, bacterial display (enrichment ratio); higher = better substrate or ligand; peptides without Tyr show the background
[5] = target: MERTK (UniProt Q12866); test: as above
[6] = target: FGFR3 (UniProt P22607); test: as above
[7] = test system: c-Src; test: as above
[8] = target: Fes (UniProt P07332); test: as above
[9] = test system: c-Abl (mouse); test: as above
[10] = target: Jak2 (UniProt O60674); test: as above
[11] = test system: Fer (mouse); test: as above
[12] = target: EPHB2 (UniProt P29323); test: as above
[13] = test system: AncSZ; test: as above
[14] = target: FGFR1 (UniProt P11362); test: as above
[15] = target: Hck (UniProt P08631); test: as above
[16] = target: Fyn (UniProt P06241); test: as above
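For SH2 binding enrichment of the phosphorylated peptide, bacterial display in this document: peptide library displayed on the E. coli surface as eCPX fusions, selected cells deep-sequenced, score is each peptide's frequency after selection divided by its frequency in the input.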
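For phosphorylation enrichment, bacterial display in this document: 11-residue human phosphosite peptides and single-mutation variants displayed on the E. coli surface, counted by deep sequencing, each peptide's frequency after selection divided by its frequency in the unselected input library; frequency after pTyr selection over input frequency; kinase dosed for 20-30% of maximal phosphorylation in three min.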

Sequence of Jak2 (O60674 whole entry, looked up): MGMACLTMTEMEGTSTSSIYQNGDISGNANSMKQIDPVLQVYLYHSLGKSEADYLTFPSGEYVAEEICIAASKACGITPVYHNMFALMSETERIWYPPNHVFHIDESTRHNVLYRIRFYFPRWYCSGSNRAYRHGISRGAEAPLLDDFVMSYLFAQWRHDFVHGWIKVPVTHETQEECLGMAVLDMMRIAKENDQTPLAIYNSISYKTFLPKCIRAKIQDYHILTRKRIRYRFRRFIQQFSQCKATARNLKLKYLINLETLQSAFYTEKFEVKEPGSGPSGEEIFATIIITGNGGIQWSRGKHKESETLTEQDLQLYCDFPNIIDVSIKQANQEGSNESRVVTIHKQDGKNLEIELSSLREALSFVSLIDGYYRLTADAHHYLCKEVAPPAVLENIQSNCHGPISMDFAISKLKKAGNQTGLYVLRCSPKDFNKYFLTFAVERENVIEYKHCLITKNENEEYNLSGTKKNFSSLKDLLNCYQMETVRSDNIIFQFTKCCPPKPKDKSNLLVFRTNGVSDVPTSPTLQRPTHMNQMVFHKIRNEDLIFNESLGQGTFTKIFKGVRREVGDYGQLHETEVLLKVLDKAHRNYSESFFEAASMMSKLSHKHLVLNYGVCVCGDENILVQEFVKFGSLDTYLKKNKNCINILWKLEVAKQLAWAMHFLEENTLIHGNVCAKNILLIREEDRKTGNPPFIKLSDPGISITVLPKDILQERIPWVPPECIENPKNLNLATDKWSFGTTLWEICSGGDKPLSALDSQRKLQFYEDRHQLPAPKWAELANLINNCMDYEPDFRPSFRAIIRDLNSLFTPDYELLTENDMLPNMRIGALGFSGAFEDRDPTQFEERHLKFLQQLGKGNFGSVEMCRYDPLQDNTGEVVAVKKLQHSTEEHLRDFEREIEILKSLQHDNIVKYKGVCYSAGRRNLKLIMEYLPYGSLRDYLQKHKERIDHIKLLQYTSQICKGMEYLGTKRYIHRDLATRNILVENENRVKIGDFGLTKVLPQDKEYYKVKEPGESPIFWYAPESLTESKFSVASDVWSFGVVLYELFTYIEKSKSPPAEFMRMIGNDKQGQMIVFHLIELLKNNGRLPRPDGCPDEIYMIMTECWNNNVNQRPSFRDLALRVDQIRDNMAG
Sequence of EPHB1 (P54762 whole entry, looked up): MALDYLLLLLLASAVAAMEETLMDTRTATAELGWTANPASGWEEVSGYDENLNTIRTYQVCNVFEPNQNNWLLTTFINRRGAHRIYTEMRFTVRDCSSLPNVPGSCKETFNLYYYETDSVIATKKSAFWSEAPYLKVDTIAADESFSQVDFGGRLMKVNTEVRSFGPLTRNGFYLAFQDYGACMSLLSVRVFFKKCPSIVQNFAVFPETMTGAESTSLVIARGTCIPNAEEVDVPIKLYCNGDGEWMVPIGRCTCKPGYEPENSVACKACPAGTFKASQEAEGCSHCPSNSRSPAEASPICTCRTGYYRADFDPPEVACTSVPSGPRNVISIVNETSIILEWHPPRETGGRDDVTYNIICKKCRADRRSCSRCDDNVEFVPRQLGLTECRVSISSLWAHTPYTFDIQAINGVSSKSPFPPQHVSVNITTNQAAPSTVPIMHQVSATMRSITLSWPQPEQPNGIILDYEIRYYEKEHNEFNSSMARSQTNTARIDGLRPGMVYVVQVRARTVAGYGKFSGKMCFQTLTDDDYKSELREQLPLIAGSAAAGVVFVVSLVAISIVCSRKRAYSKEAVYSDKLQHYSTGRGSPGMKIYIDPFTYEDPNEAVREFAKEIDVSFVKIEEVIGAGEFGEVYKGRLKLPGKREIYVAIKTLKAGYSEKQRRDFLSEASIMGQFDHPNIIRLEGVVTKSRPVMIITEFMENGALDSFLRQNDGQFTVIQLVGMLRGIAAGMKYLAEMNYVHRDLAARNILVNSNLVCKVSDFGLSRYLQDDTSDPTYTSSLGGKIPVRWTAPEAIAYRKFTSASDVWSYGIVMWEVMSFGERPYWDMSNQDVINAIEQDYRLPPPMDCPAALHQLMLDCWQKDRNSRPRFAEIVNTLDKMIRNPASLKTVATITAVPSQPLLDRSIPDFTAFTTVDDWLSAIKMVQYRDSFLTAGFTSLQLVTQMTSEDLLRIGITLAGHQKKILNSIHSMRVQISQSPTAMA
Sequence of Fyn (P06241 whole entry, looked up, the tested form may be a part): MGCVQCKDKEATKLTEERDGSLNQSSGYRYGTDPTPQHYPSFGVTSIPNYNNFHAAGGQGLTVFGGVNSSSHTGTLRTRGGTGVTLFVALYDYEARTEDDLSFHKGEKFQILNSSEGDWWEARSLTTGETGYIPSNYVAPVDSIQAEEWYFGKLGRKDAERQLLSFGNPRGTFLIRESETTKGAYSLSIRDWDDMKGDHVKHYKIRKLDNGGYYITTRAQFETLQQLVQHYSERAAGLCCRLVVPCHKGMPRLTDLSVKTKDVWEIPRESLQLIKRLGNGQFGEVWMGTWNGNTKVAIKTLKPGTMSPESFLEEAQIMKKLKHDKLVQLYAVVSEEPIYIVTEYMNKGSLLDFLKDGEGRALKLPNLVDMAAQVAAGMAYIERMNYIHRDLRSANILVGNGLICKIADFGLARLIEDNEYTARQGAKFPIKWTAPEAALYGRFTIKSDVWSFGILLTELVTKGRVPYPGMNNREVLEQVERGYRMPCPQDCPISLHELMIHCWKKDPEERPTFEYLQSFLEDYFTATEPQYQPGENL
Sequence of EPHB2 (P29323 whole entry, looked up): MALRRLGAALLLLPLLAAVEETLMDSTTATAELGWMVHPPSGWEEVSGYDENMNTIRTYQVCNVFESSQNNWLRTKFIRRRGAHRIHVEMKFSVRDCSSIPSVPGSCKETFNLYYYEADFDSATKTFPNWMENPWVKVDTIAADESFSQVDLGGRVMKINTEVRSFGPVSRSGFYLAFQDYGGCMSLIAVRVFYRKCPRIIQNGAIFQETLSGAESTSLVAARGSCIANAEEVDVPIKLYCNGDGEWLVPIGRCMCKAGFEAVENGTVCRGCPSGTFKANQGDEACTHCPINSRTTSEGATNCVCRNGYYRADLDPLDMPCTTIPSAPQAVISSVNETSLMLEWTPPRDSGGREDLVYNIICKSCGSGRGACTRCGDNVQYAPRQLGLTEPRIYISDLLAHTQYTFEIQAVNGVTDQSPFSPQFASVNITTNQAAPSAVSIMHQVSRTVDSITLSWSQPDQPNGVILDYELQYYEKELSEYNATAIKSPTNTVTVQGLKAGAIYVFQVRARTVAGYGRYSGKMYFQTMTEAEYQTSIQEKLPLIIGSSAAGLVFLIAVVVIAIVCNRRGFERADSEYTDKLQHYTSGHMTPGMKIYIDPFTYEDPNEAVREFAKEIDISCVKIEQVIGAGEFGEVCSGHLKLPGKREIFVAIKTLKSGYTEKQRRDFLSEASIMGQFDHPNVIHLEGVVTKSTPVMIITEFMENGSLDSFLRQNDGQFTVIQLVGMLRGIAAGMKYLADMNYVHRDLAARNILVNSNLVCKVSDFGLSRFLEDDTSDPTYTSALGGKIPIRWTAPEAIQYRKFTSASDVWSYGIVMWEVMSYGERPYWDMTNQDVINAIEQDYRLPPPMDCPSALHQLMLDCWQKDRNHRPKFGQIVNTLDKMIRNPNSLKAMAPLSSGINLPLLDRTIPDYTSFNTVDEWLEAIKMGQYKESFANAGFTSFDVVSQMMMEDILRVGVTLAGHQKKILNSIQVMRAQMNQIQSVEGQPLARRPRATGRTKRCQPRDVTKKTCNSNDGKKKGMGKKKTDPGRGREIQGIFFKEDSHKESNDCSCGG
Sequence of Fes (P07332 whole entry, looked up): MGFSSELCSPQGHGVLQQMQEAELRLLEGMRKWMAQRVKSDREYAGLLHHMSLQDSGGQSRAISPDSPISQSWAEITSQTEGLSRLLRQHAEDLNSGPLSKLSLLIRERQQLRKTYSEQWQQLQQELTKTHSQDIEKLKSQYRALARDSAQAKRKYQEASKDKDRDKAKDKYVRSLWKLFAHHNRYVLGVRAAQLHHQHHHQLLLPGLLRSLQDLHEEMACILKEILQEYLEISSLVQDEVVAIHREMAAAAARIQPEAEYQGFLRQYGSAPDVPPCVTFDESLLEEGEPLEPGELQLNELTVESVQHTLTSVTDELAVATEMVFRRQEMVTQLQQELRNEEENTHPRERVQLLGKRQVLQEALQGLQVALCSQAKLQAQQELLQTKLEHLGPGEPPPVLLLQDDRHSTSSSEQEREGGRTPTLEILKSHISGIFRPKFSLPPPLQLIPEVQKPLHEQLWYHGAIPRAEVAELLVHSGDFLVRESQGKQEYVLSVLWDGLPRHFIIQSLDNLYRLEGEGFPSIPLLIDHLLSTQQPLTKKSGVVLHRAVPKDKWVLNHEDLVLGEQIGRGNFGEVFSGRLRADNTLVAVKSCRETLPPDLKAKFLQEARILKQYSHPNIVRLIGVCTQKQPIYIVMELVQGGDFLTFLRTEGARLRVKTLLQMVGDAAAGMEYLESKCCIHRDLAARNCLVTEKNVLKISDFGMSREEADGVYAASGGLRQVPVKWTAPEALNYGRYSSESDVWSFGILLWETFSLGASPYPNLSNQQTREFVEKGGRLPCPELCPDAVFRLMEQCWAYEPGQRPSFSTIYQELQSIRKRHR
Sequence of Hck (P08631 whole entry, looked up): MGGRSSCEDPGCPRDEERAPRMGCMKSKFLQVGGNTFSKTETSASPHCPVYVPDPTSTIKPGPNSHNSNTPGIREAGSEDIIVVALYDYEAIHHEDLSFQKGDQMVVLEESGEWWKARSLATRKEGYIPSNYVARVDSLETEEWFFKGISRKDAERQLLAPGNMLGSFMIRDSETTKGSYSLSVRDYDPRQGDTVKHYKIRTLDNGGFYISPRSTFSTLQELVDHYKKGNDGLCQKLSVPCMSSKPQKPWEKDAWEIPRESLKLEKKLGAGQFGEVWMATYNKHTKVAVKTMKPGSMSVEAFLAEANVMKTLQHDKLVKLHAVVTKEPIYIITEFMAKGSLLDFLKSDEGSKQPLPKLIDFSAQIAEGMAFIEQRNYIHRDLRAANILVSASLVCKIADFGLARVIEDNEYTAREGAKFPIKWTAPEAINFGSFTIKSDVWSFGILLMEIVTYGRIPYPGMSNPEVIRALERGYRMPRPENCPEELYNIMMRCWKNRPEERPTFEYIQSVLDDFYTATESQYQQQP

Sequence | SH2 binding enrichment [1] | SH2 binding enrichment [2] | SH2 binding enrichment [3] | phosphorylation enrichment [4] | phosphorylation enrichment [5] | phosphorylation enrichment [6] | phosphorylation enrichment [7] | phosphorylation enrichment [8] | phosphorylation enrichment [9] | phosphorylation enrichment [10] | phosphorylation enrichment [11] | phosphorylation enrichment [12] | phosphorylation enrichment [13] | phosphorylation enrichment [14] | phosphorylation enrichment [15] | phosphorylation enrichment [16]
TNEFEYDELIV [TGM1_Y136_D132N_YF] | 0.804 | 0.47 | 0.679 | 0.51 | 0.483 | 0.887 | 0.669 | 1.61 | 0.951 | 1.37 | 0.709 | 0.424 | 1.61 | 0.658 | 0.747 | 0.475
TNFCLYLRSLE [MTM1_Y71_R69C_YF] | 0.773 | 0.525 | 0.644 | 0.895 | 0.492 | 0.995 | 0.612 | 1.69 | 1.27 | 1.7 | 0.847 | 0.759 | 1.62 | 0.512 | 0.567 | 0.594
TNIKRYHIAKG [HARS1_Y150_V155G] | 0.93 | 0.867 | 0.972 | 0.311 | 0.405 | 0.356 | 0.408 | 0.479 | 0.503 | 0.368 | 0.33 | 0.39 | 0.506 | 0.351 | 0.367 | 0.409
TNYPLYLRSLE [MTM1_Y71_R69P] | 0.96 | 0.433 | 0.862 | 1.01 | 0.551 | 0.987 | 0.499 | 1.36 | 0.668 | 1.28 | 0.555 | 0.727 | 1.18 | 0.671 | 0.654 | 0.603
TNYRFYLRSLE [MTM1_Y71_L70F] | 0.895 | 0.495 | 0.717 | 0.619 | 0.423 | 0.855 | 0.41 | 1.18 | 0.835 | 1.09 | 0.421 | 0.532 | 1.19 | 0.438 | 0.558 | 0.48
TPLSAYQIPRT [GAB2_Y324] | 1.04 | 0.792 | 0.853 | 0.415 | 0.703 | 0.317 | 0.435 | 0.539 | 8.8 | 0.615 | 0.586 | 0.466 | 0.593 | 0.408 | 0.29 | 0.365
TQNGVYSAANF [DDX5_Y535_YF] | 0.861 | 0.855 | 0.611 | 1.4 | 6.66 | 0.443 | 5.43 | 0.541 | 2 | 0.444 | 4.42 | 1.94 | 0.56 | 0.489 | 8.3 | 7.62
TQPSPYAVYLF [RPGRIP1_Y823_R827L] | 1.16 | 1.16 | 1.17 | 3.03 | 6.5 | 1.1 | 5.65 | 1.68 | 9.15 | 1.01 | 7.18 | 5.25 | 1.06 | 1.34 | 3.73 | 7.04
TQRPYYKGGGG [TYROBP_Y112] | 1.08 | 0.93 | 0.765 | 0.39 | 0.553 | 0.455 | 0.438 | 0.666 | 0.573 | 0.537 | 0.419 | 0.303 | 0.49 | 0.558 | 0.377 | 0.417
TRDVNYGWVIR [MT-CYB_Y75_I78V] | 1.13 | 0.654 | 0.604 | 0.947 | 1.12 | 0.869 | 0.576 | 1.45 | 0.841 | 1.22 | 1.05 | 1.27 | 1.16 | 0.612 | 0.806 | 0.647
TRGLEYIVPLM [CLCN4_Y548_G544R] | 0.835 | 0.825 | 0.707 | 0.804 | 0.457 | 1.04 | 0.541 | 0.78 | 0.89 | 2.02 | 0.409 | 0.721 | 1.18 | 1.41 | 0.493 | 0.456
TRSFDYMEGED [FGF7_Y58_G62E_YF] | 0.911 | 0.618 | 0.589 | 0.592 | 0.435 | 0.788 | 0.391 | 1.6 | 0.754 | 1.3 | 0.546 | 1.04 | 1.41 | 0.827 | 0.738 | 0.649
TSFQMYDKGLV [IARS2_Y231_F227S_YF] | 0.547 | 0.315 | 0.538 | 0.596 | 0.438 | 0.82 | 0.475 | 0.846 | 0.473 | 1.03 | 0.877 | 0.746 | 0.925 | 0.651 | 0.934 | 0.649
TSHKGYVAFLE [CARD9_Y76_G72S] | 0.877 | 2.64 | 0.724 | 0.451 | 0.38 | 0.554 | 0.354 | 0.762 | 0.602 | 0.676 | 0.315 | 0.404 | 0.707 | 0.477 | 0.38 | 0.353
TSNNPYFRDQA [RPGRIP1_Y846_A841T] | 0.789 | 0.503 | 0.844 | 0.395 | 0.473 | 0.544 | 0.721 | 0.796 | 0.628 | 0.901 | 0.396 | 0.374 | 0.665 | 0.451 | 0.454 | 0.51
TTGGFYSYGGG [KRT24_Y120_A115T] | 0.773 | 0.945 | 0.778 | 1.18 | 13.9 | 0.664 | 1.25 | 1.04 | 0.692 | 0.763 | 4.54 | 1.1 | 1.03 | 0.528 | 2.39 | 2.56
TTKVSYRASQP [MKI67_Y1737] | 0.962 | 0.533 | 0.83 | 0.3 | 0.352 | 0.334 | 0.343 | 0.489 | 0.638 | 0.475 | 0.432 | 0.337 | 0.602 | 0.355 | 0.326 | 0.311
TTPFNYSFIFK [RAB14_Y8_A4T_YF] | 1.1 | 1.86 | 1.82 | 2.1 | 1.93 | 0.793 | 0.593 | 1.28 | 0.86 | 0.941 | 0.74 | 0.734 | 1.2 | 0.725 | 0.695 | 0.705
TTSQPYRRLCS [USH2A_Y534_C536R] | 0.622 | 0.581 | 0.542 | 0.247 | 0.316 | 0.479 | 0.356 | 0.866 | 0.288 | 0.355 | 0.315 | 0.393 | 0.412 | 0.287 | 0.286 | 0.29
TVLEPYADPYY [ZC3H18_Y367] | 0.773 | 1.29 | 0.262 | 0.566 | 0.712 | 0.905 | 2.44 | 1.69 | 1.25 | 1.58 | 0.516 | 0.697 | 2.42 | 0.785 | 0.834 | 1.23
TYEYKYPEGSS [TGM4_Y440] | 0.821 | 0.854 | 0.701 | 0.526 | 0.414 | 0.755 | 0.525 | 1.11 | 0.777 | 1.05 | 0.392 | 0.492 | 1.32 | 0.517 | 0.449 | 0.394
TYGNLYGSRKQ [YIPF7_Y59_A54T] | 0.94 | 0.632 | 0.945 | 0.434 | 0.89 | 0.467 | 7.59 | 0.6 | 0.864 | 0.73 | 1.38 | 0.74 | 0.655 | 0.486 | 13.2 | 6.14
VAMELYVFGGV [GAN_Y471] | 0.808 | 0.395 | 0.685 | 0.799 | 0.928 | 0.781 | 1.13 | 1.64 | 1.05 | 1.37 | 0.574 | 0.681 | 1.28 | 0.513 | 0.535 | 0.533
VDTRAYFTSAT [MT-CO1_Y304] | 1.01 | 0.693 | 0.678 | 0.37 | 0.366 | 0.459 | 0.38 | 0.687 | 0.382 | 0.525 | 0.256 | 0.361 | 0.61 | 0.397 | 0.479 | 0.39
VECHPYFTQPK [AKR1D1_Y199] | 0.765 | 0.444 | 0.637 | 0.525 | 0.371 | 0.709 | 0.779 | 1.01 | 0.617 | 0.819 | 0.421 | 0.517 | 0.938 | 0.591 | 0.515 | 0.559
VEDPEYAVTQL [STOML2_Y124] | 1.11 | 0.483 | 0.835 | 0.466 | 0.409 | 0.516 | 0.549 | 0.997 | 0.597 | 0.893 | 0.709 | 0.531 | 1.24 | 0.477 | 0.463 | 0.398
VEQIHYIGQNE [HMOX2_Y140_R137Q] | 0.834 | 0.465 | 0.582 | 0.445 | 0.408 | 0.612 | 0.452 | 0.663 | 0.423 | 0.547 | 0.424 | 0.396 | 0.665 | 0.483 | 0.461 | 0.462
VERRVYAEDPY [PCCA_Y401_C398R] | 0.89 | 0.55 | 0.506 | 0.459 | 0.46 | 0.664 | 0.681 | 0.962 | 0.566 | 0.663 | 0.424 | 0.507 | 0.826 | 0.631 | 0.566 | 0.764
VFLGAYDRFLP [SLC22A5_Y486_YF] | 0.908 | 1.06 | 0.852 | 1.01 | 5.13 | 0.656 | 4.15 | 1.02 | 0.782 | 0.976 | 1.18 | 1.58 | 1.19 | 0.704 | 4 | 2.96
